The text below walks through data of PMC9107400.

Assay [1] deals with N-terminal FLAG-tagged SMAD4 (UniProt Q13485). Kind of assay: co-IP; HEK293T cells transfected with FLAG-tagged SMAD4 (or its deletion constructs) and AR constructs, treated with DHT 10 nM and BMP7 50 ng/mL for 12 h; nuclear extracts incubated overnight at 4 °C with anti-FLAG or anti-AR antibody (IgG isotype as control) on protein G Dynabeads; Western blot for AR and SMAD4. Background: Immunoblotting shows a protein as a band on a membrane.

The target in the next assay is AR65Q (human) (UniProt P10275). Kind of assay: co-IP; cell-free ('in vitro pull-down'): FLAG-SMAD4 (TNT wheat germ) and GST-AR constructs (E. coli S30) in vitro translated, equal amounts mixed overnight at 4 °C, captured with anti-GST antibody on protein G Dynabeads, Western blot with anti-FLAG.

In assay [1], “AR100Q (from UniProt P10275 1-920) (natural protein)” returned a binding compared to wild type of 50%.

In turn, “FLAG-tagged SMAD4, in vitro translated (from UniProt Q13485 1-552) (natural protein)” had a binding compared to wild type with AR65Q (human) of 70%.
